The values below come from patent publication US20220040290A1.

For this test, the target named is stabilized CH505 TF ch.SOSIP trimer (E64K/A316W) (HIV-1). The test is described as follows: method not stated.

“unmutated common ancestor (UCA) of the CH103 B cell lineage (antibody)”: the Kd (as a rule, the free concentration of one partner at which half of the binding sites on the other are occupied at equilibrium, for simple one-to-one binding) came to 171 nM.
